Like-named read-outs stand apart in the source and are kept apart here.

Two molecules from patent US20210347873A1 (SHANGHAI PHARMAEXPLORER, published 2021) can be followed below.

The target of experiment [1] is biotinylated hBLyS-ECD (human) (UniProt Q9Y275). Description: ELISA on captured biotinylated hBLyS-ECD; control antibody 0 nM (background). For orientation: In an ELISA, binding on a coated surface is turned into a signal by an enzyme label.
Experiment [2] shares this target. Description: BAFF R-coated ELISA, biotinylated hBLyS-ECD bound in presence of control antibody 0.0064 nM.
Experiment [3] shares this target. As to the kind of experiment: BAFF R-coated ELISA, biotinylated hBLyS-ECD bound in presence of control antibody 0.16 nM.
For experiment [4] the target is unchanged. Description: BAFF R-coated ELISA, biotinylated hBLyS-ECD bound in presence of control antibody 100 nM.
The target is the same in experiment [5]. As to the kind of experiment: BAFF R-coated ELISA, biotinylated hBLyS-ECD bound in presence of control antibody 4 nM.
The target is the same in experiment [6]. Description: ELISA on captured biotinylated hBLyS-ECD; control antibody 0.534 nM.
The target in experiment [7] is extracellular domain of human BLyS protein (hBLyS-ECD), His-tagged, Ala134-Leu285 (human) (UniProt Q9Y275). As to the kind of experiment: cell-based or functional assay.
Sequence of extracellular domain of human BLyS protein (hBLyS-ECD), His-tagged, Ala134-Leu285 (human) (Q9Y275 134-285): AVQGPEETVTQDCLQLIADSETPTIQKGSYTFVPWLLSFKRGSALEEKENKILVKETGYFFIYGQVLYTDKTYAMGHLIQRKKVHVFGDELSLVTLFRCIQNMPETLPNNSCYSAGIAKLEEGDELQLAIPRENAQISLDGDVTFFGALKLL
Experiment [8] has the same target. Description: cell-based or functional assay. This is another data set of the same source.
The target of experiment [9] is biotinylated hBLyS-ECD (human) (UniProt Q9Y275). Description: BAFF R-coated ELISA, biotinylated hBLyS-ECD bound in presence of control antibody 0.0064 nM. This is another data set of the same source.
Experiment [10] has the same target. As to the kind of experiment: ELISA on captured biotinylated hBLyS-ECD; control antibody 0.0213 nM.
Experiment [11] concerns the target extracellular domain of human BLyS protein (hBLyS-ECD), His-tagged, Ala134-Leu285 (human) (UniProt Q9Y275). As to the kind of experiment: cell-based or functional assay. The source holds these as a separate data set.
Experiment [12] deals with biotinylated hBLyS-ECD (human) (UniProt Q9Y275). As to the kind of experiment: BAFF R-coated ELISA, biotinylated hBLyS-ECD bound in presence of control antibody 100 nM. This is another data set of the same source.
For experiment [13] the target is unchanged. As to the kind of experiment: ELISA on captured biotinylated hBLyS-ECD; control antibody 66.7 nM.
Experiment [14] shares this target. As to the kind of experiment: ELISA on captured biotinylated hBLyS-ECD; control antibody 2.67 nM.
The target is the same in experiment [15]. Description: ELISA on captured biotinylated hBLyS-ECD; control antibody 0.534 nM. This is another data set of the same source.
For experiment [16] the target is unchanged. As to the kind of experiment: ELISA on captured biotinylated hBLyS-ECD; control antibody 0.0213 nM. This is another data set of the same source.
Experiment [17] has the same target. As to the kind of experiment: BAFF R-coated ELISA, biotinylated hBLyS-ECD bound in presence of control antibody 0.032 nM.
The target is the same in experiment [18]. As to the kind of experiment: BAFF R-coated ELISA, biotinylated hBLyS-ECD bound in presence of control antibody 4 nM. The source holds these as a separate data set.
Experiment [19] shares this target. Description: BAFF R-coated ELISA, biotinylated hBLyS-ECD bound in presence of control antibody 0 nM.
Experiment [20] has the same target. Description: ELISA on captured biotinylated hBLyS-ECD; control antibody 13.3 nM.
Experiment [21] has the same target. As to the kind of experiment: ELISA on captured biotinylated hBLyS-ECD; control antibody 0 nM (background). This is another data set of the same source.
Experiment [22] shares this target. Description: ELISA on captured biotinylated hBLyS-ECD; control antibody 2.67 nM. This is another data set of the same source.
Experiment [23] shares this target. Description: BAFF R-coated ELISA, biotinylated hBLyS-ECD bound in presence of control antibody 0.8 nM.
For experiment [24] the target is unchanged. As to the kind of experiment: ELISA on captured biotinylated hBLyS-ECD; control antibody 0.00427 nM.
Experiment [25] has the same target. As to the kind of experiment: BAFF R-coated ELISA, biotinylated hBLyS-ECD bound in presence of control antibody 0.032 nM. The source holds these as a separate data set.
Experiment [26] has the same target. As to the kind of experiment: ELISA on captured biotinylated hBLyS-ECD; control antibody 0.00427 nM. This is another data set of the same source.
For experiment [27] the target is unchanged. As to the kind of experiment: BAFF R-coated ELISA, biotinylated hBLyS-ECD bound in presence of control antibody 20 nM.
Experiment [28] shares this target. Description: ELISA on captured biotinylated hBLyS-ECD; control antibody 0.107 nM.
Experiment [29] concerns the target T1, extracellular domain of human BLyS protein (hBLyS-ECD), His-tagged, Ala134-Leu285 (human, UniProt Q9Y275 134-285). As to the kind of experiment: cell-based or functional assay.
Experiment [30] concerns the target T1, extracellular domain of human BLyS …. Description: cell-based or functional assay. The source holds these as a separate data set.

Sequence of biotinylated hBLyS-ECD (human) (Q9Y275 134-285): as above
T1 sequence (Q9Y275 134-285): as above

hIgG Control (antibody): the OD450 nm in [1] came to 0.119 OD450 nm; in experiment [2] it was 1.99 OD450 nm; in experiment [3], 2.04 OD450 nm; in experiment [4], 2.2 OD450 nm; in [5] it was 2.15 OD450 nm; in [6], 0.062 OD450 nm. Also, the OD450 nm amounted to 2.01 OD450 nm in [9]; 0.0699 OD450 nm in experiment [10]; 1.87 OD450 nm in experiment [12]; 0.144 OD450 nm in experiment [13]; 0.237 OD450 nm in experiment [14]; 0.141 OD450 nm in experiment [15]. The OD450 nm in experiment [16] stood at 0.0887 OD450 nm; in experiment [17], 1.99 OD450 nm; in [18], 1.87 OD450 nm; in [19], 2.37 OD450 nm; in [20] it was 0.103 OD450 nm; in [21], 0.0731 OD450 nm. Also, the OD450 nm in experiment [22] turned out to be 0.0652 OD450 nm; in experiment [23] it was 1.85 OD450 nm; in experiment [24], 0.121 OD450 nm; in experiment [25], 1.84 OD450 nm; in experiment [26], 0.0798 OD450 nm; in experiment [27], 2.01 OD450 nm. In addition, the OD450 nm in experiment [28] turned out to be 0.117 OD450 nm. Besides, the OD450 nm (as headed), mouse B lymphocyte proliferation; control antibody 0 nM in experiment [7] was 4390. Moreover, the OD450 nm (as headed), mouse B lymphocyte proliferation; control antibody 0.000256 nM in experiment [7] was 4940. The OD450 nm (as headed), mouse B lymphocyte proliferation; control antibody 0.00128 nM in experiment [7] was determined as 4690. In experiment [7], this molecule showed an OD450 nm (as headed), mouse B lymphocyte proliferation; control antibody 0.0064 nM of 5070. The same molecule yielded an OD450 nm (as headed), mouse B lymphocyte proliferation; control antibody 0.032 nM in [7] of 5120. In experiment [7], the OD450 nm (as headed), mouse B lymphocyte proliferation; control antibody 0.16 nM was determined as 5370. This molecule also yielded an OD450 nm (as headed), mouse B lymphocyte proliferation; control antibody 0.8 nM in experiment [7] of 5040. In addition, the OD450 nm (as headed), mouse B lymphocyte proliferation; control antibody 4 nM in experiment [7] came to 5100. For the same molecule, in experiment [7], the OD450 nm (as headed), mouse B lymphocyte proliferation; control antibody 20 nM is 4930. In [7], this molecule yielded an OD450 nm (as headed), mouse B lymphocyte proliferation; control antibody 100 nM of 4880. Besides, the values for the Proportion of B lymphocytes in splenocytes (%), in vivo in mice in [7], in [8] and in experiment [11] were 51%, 39.4% and 38.3%, respectively.

B1: c97A3C2H4 (antibody, V domains shown)
VH: EVKLVESGGGLVQPGGSLKLSCAASGFTFSTYTMSWVRQTPEKRLEWVAYISYGGGSTSYPDTVKGRFTISRDNAKNTLYLQMSSLKSEDTAIYYCTRHVTVVENSMDYWGQGTSVTVSS
VL: DILLTQSPDILSVSPGERVSFSCRASQSIGTSIHWYQQRTNGSPRLLIKYVSESFSGTPSRFSGSGSGTAFTLTINSVESEDIADYYCQQTHSWPWTFGGGTKLEIK
notes: also called chimeric antibody c97A3C2H4
For the molecule B1, the “Proportion of B lymphocytes in splenocytes (%), in vivo in mice” value in [29] worked out at 24.1%; in experiment [30], 28.2%.
